The text below walks through data of patent publication US7297508 (Takeda / Millennium, dated 2007).

The data set deals with the molecule itself. As to the kind of experiment: X-ray crystal structure of apo FAPα (SEQ ID NO:3), homodimer.

B1: FAPα (SEQ ID NO:3), secreted recombinant human fibroblast activation protein alpha, residues 27-760 of SEQ ID NO:1 with part of the gp67 signal sequence at the … (enzyme)
chain: ADPGRPSRVHNSEENTMRALTLKDILNGTFSYKTFFPNWISGQEYLHQSADNNIVLYNIETGQSYTILSNRTMKSVNASNYGLSPDRQFVYLESDYSKLWRYSYTATYYIYDLSNGEFVRGNELPRPIQYLCWSPVGSKLAYVYQNNIYLKQRPGDPPFQITFNGRENKIFNGIPDWVYEEEMLATKYALWWSPNGKFLAYAEFNDTDIPVIAYSYYGDEQYPRTINIPYPKAGAKNPVVRIFIIDTTYPAYVGPQEVPVPAMIASSDYYFSWLTWVTDERVCLQWLKRVQNVSVLSICDFREDWQTWDCPKTQEHIEESRTGWAGGFFVSTPVFSYDAISYYKIFSDKDGYKHIHYIKDTVENAIQITSGKWEAINIFRVTQDSLFYSSNEFEEYPGRRNIYRISIGSYPPSKKCVTCHLRKERCQYYTASFSDYAKYYALVCYGPGIPISTLHDGRTDQEIKILEENKELENALKNIQLPKEEIKKLEVDEITLWYKMILPPQFDRSKKYPLLIQVYGGPCSQSVRSVFAVNWISYLASKEGMVIALVDGRGTAFQGDKLLYAVYRKLGVYEVEDQITAVRKFIEMGFIDEKRIAIWGWSYGGYVSSLALASGTGLFKCGIAVAPVSSWEYYASVYTERFMGLPTKDDNLEHYKNSTVMARAEYFRNVDYLLIHGTADDNVHFQNSAQIAKALVNAQVDFQAMWYSDQNHGLSGLSTNHLYTHMTHFLKQCFSLSDHHHHHH
modifications: three Asn residues (chain A) or five Asn residues (chain B) carry covalently linked sugar molecules; positions not given
notes: Only residues 39-757 are seen in the structure; Expressed in Hi5 insect cells; also called Seprase; apo FAPα
For B1, the binding result is on record as “binds”.
